According to patent US20240270846A1 (published 2024):

Target: T1, CD3 epsilon homodimer protein (UniProt P07766 23-126)
T1 construct: also called CD3 (CD3 epsilon)
Assay: SPR Biacore T200, antibody over immobilised CD3e homodimer;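 further: CD3 epsilon homodimer amine-coupled on a CM4 chip, run at 25 °C in HBS-EP+, Z = bound amount of each single-residue H chain variant over that of the parent antibody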

T1 sequence (P07766 23-126): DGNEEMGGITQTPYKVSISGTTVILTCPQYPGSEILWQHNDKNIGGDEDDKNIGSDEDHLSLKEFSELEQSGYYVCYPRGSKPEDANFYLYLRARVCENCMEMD

Row | ratio of amounts bound (Z=Y/X vs CE115HA000) | Binder
1 | 0.99 | CE115HA000 A60D one-arm antibody (antibody, human IgG1, kappa, L234A L235A, N297A, name in Kabat numbering, one-arm antibody) heavy: QVQLVESGGGVVQPGRSLRLSCAASGFTFSNAWMHWVRQAPGKGLEWVAQIKAKSNNYATYYDESVKGRFTISRDDSKNSLYLQMNSLKTEDTAVYYCRYVHYGAYYGVDAWGQGTTVTVSSASTKGPSVFPLAPSSKSTSGGTAALGCLVKDYFPEPVTVSWNSGALTSGVHTFPAVLQSSGLYSLSSVVTVPSSSLGTQTYICNVNHKPSNTKVDKKVEPKSCDKTHTCPPCPAPEAAGGPSVFLFPPKPKDTLMISRTPEVTCVVVDVSHEDPEVKFNWYVDGVEVHNAKTKPREEQYASTYRVVSVLTVLHQDWLNGKEYKCKVSNKALPAPIEKTISKAKGQPREPQVYTLPPSRCELTKNQVSLSCAVKGFYPSDIAVEWESNGQPENNYKTTPPVLDSDGSFFLVSKLTVDKSRWQQGNVFSCSVMHEALHNHYTQKSLSLSPDYKDDDDK EPKSSDKTHTCPPCPAPELLGGPSVFLFPPKPKDTLMISRTPEVTCVVVDVSHEDPEVKFNWYVDGVEVHNAKTKPREEQYNSTYRVVSVLTVLHQDWLNGKEYKCKVSNKALPAPIEKTISKAKGQPREPQVCTLPPSRDELTKNQVSLWCLVKGFYPSDIAVEWESNGQPENNYKTTPPVLDSDGSFFLYSKLTVDKSRWQQGNVFSCSVMHEALHNRYTQKSLSLSP light: DIVMTQSPLSLPVTPGEPASISCRSSQSLVHSNRNTYLHWYQQKPGQAPRLLIYKVSNRFSGVPDRFSGSGSGTDFTLKISRVEAEDVGVYYCGQGTQVPYTFGQGTKLEIKRTVAAPSVFIFPPSDEQLKSGTASVVCLLNNFYPREAKVQWKVDNALQSGNSQESVTEQDSKDSTYSLSSTLTLSKADYEKHKVYACEVTHQGLSSPVTKSFNRGEC
2 | 0.94 | CE115HA000 A60E one-arm antibody (antibody, human IgG1, kappa, L234A L235A, N297A, name in Kabat numbering, one-arm antibody) heavy: QVQLVESGGGVVQPGRSLRLSCAASGFTFSNAWMHWVRQAPGKGLEWVAQIKAKSNNYATYYEESVKGRFTISRDDSKNSLYLQMNSLKTEDTAVYYCRYVHYGAYYGVDAWGQGTTVTVSSASTKGPSVFPLAPSSKSTSGGTAALGCLVKDYFPEPVTVSWNSGALTSGVHTFPAVLQSSGLYSLSSVVTVPSSSLGTQTYICNVNHKPSNTKVDKKVEPKSCDKTHTCPPCPAPEAAGGPSVFLFPPKPKDTLMISRTPEVTCVVVDVSHEDPEVKFNWYVDGVEVHNAKTKPREEQYASTYRVVSVLTVLHQDWLNGKEYKCKVSNKALPAPIEKTISKAKGQPREPQVYTLPPSRCELTKNQVSLSCAVKGFYPSDIAVEWESNGQPENNYKTTPPVLDSDGSFFLVSKLTVDKSRWQQGNVFSCSVMHEALHNHYTQKSLSLSPDYKDDDDK EPKSSDKTHTCPPCPAPELLGGPSVFLFPPKPKDTLMISRTPEVTCVVVDVSHEDPEVKFNWYVDGVEVHNAKTKPREEQYNSTYRVVSVLTVLHQDWLNGKEYKCKVSNKALPAPIEKTISKAKGQPREPQVCTLPPSRDELTKNQVSLWCLVKGFYPSDIAVEWESNGQPENNYKTTPPVLDSDGSFFLYSKLTVDKSRWQQGNVFSCSVMHEALHNRYTQKSLSLSP light: DIVMTQSPLSLPVTPGEPASISCRSSQSLVHSNRNTYLHWYQQKPGQAPRLLIYKVSNRFSGVPDRFSGSGSGTDFTLKISRVEAEDVGVYYCGQGTQVPYTFGQGTKLEIKRTVAAPSVFIFPPSDEQLKSGTASVVCLLNNFYPREAKVQWKVDNALQSGNSQESVTEQDSKDSTYSLSSTLTLSKADYEKHKVYACEVTHQGLSSPVTKSFNRGEC
